{"source": "patent US20230203188A1", "key": {"[1]": {"molecular_target": "full-length cyno SIRPβ1 (XP_005568598, clone PA2), on CHO cells (cynomolgus monkey)", "experiment": "flow cytometry on CHO cells expressing the target"}, "[2]": {"molecular_target": "full-length cyno SIRPα (XP_015313155, clone P3HD10), on CHO cells (cynomolgus monkey)", "experiment": "flow cytometry on CHO cells expressing the target"}, "[3]": {"molecular_target": "ED-tagged human SIRPα V1 receptor on Jurkat SIRPα-V1 signaling cells (human) (UniProt P78324)", "sequence (P78324 31-504)": "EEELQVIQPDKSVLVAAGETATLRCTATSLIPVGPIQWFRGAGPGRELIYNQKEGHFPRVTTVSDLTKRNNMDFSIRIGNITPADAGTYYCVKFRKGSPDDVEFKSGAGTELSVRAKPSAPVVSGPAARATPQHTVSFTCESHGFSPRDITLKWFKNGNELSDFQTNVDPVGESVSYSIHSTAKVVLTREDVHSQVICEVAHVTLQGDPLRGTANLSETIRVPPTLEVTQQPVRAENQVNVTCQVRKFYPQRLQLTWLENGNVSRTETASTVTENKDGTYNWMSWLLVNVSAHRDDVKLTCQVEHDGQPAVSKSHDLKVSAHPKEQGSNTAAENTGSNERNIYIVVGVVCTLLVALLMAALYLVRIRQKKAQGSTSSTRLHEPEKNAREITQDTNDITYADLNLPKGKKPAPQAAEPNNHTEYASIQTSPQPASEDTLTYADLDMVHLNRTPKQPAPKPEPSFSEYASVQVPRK", "experiment": "cell-based or functional assay"}, "[4]": {"molecular_target": "ED-tagged human SIRPα V2 receptor on Jurkat SIRPα-V2 signaling cells (human) (UniProt P78324)", "sequence (P78324 31-504)": "as above", "experiment": "cell-based or functional assay"}}}
{"substance": "KWAR23 (antibody)", "values": [{"measurement": "EC50", "setting": "[1]", "result": 0.2, "unit": "nM"}, {"measurement": "EC50", "setting": "[2]", "result": 0.5, "unit": "nM"}, {"measurement": "IC50 of SIRPα signaling (SHP-1 recruitment, enzyme fragment complementation, Jurkat reporter cells)", "setting": "[3]", "result": 0.04, "unit": "nM"}, {"measurement": "IC50 of SIRPα signaling (SHP-1 recruitment, enzyme fragment complementation, Jurkat reporter cells)", "setting": "[4]", "result": 0.04, "unit": "nM"}]}
